± gives the uncertainty stated by the source.
B1: Peripheral plasma membrane protein CASK, residues 488 to 569; numbered along this chain, O14936 (parent)
chain: VRLVQFQKNTDEPMGITLKMNELNHCIVARIMHGGMIHRQGTLHVGDEIREINGISVANQTVEQLQKMLREMRGSITFKIVP

Variants of: B1
Assay: abundance fitness (aPCA) (normalised: wild type 0, dead -1); higher = more abundant; growth selection in yeast, the domain comes from the species named
Details: Homo sapiens

Point of comparison: N9V, abundance fitness 0.005 ± 0.022. Against it:
- R70I — lower, -0.078 ± 0.038
- R70Y — within error, -0.039 ± 0.049
- G41W — lower, -0.829 ± 0.048
- G41L — lower, -0.424 ± 0.029
- K67T — within error, 0.001 ± 0.032
- K67Q — within error, -0.054 ± 0.042
- K67Y — within error, -0.064 ± 0.047
- K67W — lower, -0.119 ± 0.032
- K67M — within error, -0.029 ± 0.034
- I80T — lower, -0.142 ± 0.038
- I80D — lower, -1.32 ± 0.44
- I80H — lower, -0.623 ± 0.073
- I80V — within error, 0.012 ± 0.037
- I80P — lower, -0.921 ± 0.08
- L3N — lower, -0.13 ± 0.053
- L3D — lower, -0.141 ± 0.041
- L3G — lower, -0.307 ± 0.023
- E12A — lower, -0.08 ± 0.031
- E12P — lower, -0.757 ± 0.15
- E12N — lower, -0.277 ± 0.066
- E12S — lower, -0.089 ± 0.037
- N59T — within error, 0.003 ± 0.033
- N59M — lower, -0.099 ± 0.033
- N59Y — lower, -0.1 ± 0.047
- F6Y — lower, -0.095 ± 0.035
- F6K — lower, -0.674 ± 0.047
- F6W — lower, -0.251 ± 0.025
- N21T — within error, -0.041 ± 0.027
- N21E — lower, -0.136 ± 0.032
- N21P — lower, -0.33 ± 0.031
- N21I — lower, -0.201 ± 0.041
- D11Y — lower, -0.22 ± 0.077
- D11V — lower, -0.072 ± 0.032
- D11F — lower, -0.251 ± 0.16
- M72I — within error, 0.036 ± 0.042
- M72K — lower, -0.072 ± 0.032
- M72D — lower, -0.182 ± 0.034
- M72G — lower, -0.077 ± 0.02
- M72R — lower, -0.14 ± 0.021
- I49P — lower, -0.743 ± 0.15
- M14C — lower, -0.127 ± 0.046
- M14S — lower, -0.149 ± 0.033
- G46I — lower, -1.01 ± 0.24
- G46L — lower, -0.638 ± 0.05
- G46P — lower, -0.877 ± 0.13
- G46M — lower, -0.553 ± 0.076
- G46R — lower, -0.669 ± 0.041
- G46F — lower, -0.75 ± 0.17
- G46C — lower, -0.721 ± 0.081
- R30Q — within error, -0.013 ± 0.045
- R30W — lower, -0.114 ± 0.034
- R30M — lower, -0.112 ± 0.046
- R30Y — within error, 0.015 ± 0.092
- R30V — lower, -0.163 ± 0.032
- L23R — within error, 0.046 ± 0.022
- L23P — lower, -0.073 ± 0.036
- L23Y — higher, 0.128 ± 0.043
- L23S — within error, 0.028 ± 0.029
- L23I — within error, 0.054 ± 0.057
- L23W — within error, 0.007 ± 0.026
- I16G — lower, -0.98 ± 0.075
- I16N — lower, -0.654 ± 0.18
- G54W — lower, -0.549 ± 0.054
- G54N — lower, -0.16 ± 0.12
- N53V — lower, -0.932 ± 0.084
- N53S — lower, -0.183 ± 0.043
- N53M — lower, -0.357 ± 0.088
- N53Q — lower, -0.186 ± 0.061
- N53Y — lower, -0.525 ± 0.17
- I27D — lower, -1.05 ± 0.1
- I27T — within error, -0.021 ± 0.03
- G34H — within error, -0.052 ± 0.085
- G34Q — lower, -0.151 ± 0.057
- G34C — lower, -0.252 ± 0.064
- G34A — lower, -0.247 ± 0.041
- G34I — lower, -0.478 ± 0.1
- G34N — within error, -0.016 ± 0.1
- L69E — lower, -0.537 ± 0.058
- L69K — lower, -0.9 ± 0.074
- L69N — lower, -0.609 ± 0.086
- L69P — lower, -0.944 ± 0.086
- L69G — lower, -0.443 ± 0.027
- C26G — lower, -0.736 ± 0.029
- C26V — within error, 0.015 ± 0.023
- K79P — lower, -1.14 ± 0.16
- K79A — within error, 0.071 ± 0.044
- K79Q — within error, -0.016 ± 0.037
- K79L — lower, -0.09 ± 0.029
- K79T — lower, -0.06 ± 0.031
- H25F — lower, -0.194 ± 0.05
- I76E — lower, -1.04 ± 0.098
- I76V — within error, -0.01 ± 0.024
- I76C — within error, -0.028 ± 0.039
- I76K — lower, -1.11 ± 0.13
- T17L — within error, 0.019 ± 0.023
- T17E — within error, -0.019 ± 0.028
- T17G — within error, -0.023 ± 0.021
- T17I — higher, 0.092 ± 0.03
- T17S — lower, -0.051 ± 0.023
- V45C — lower, -0.128 ± 0.079
- V45F — lower, -0.457 ± 0.14
- V45E — within error, -0.054 ± 0.046
- V45P — within error, -0.059 ± 0.072
- V45N — lower, -0.292 ± 0.12
- I31V — lower, -0.057 ± 0.03
- I31R — lower, -0.869 ± 0.052
- I31E — lower, -0.777 ± 0.078
- E51F — lower, -0.441 ± 0.23
- E51L — lower, -0.442 ± 0.39
- E51A — within error, -0.096 ± 0.11
- G35W — lower, -0.422 ± 0.035
- H38Q — within error, 0.024 ± 0.034
- H38Y — lower, -0.076 ± 0.049
- H38G — lower, -0.091 ± 0.02
- H38T — lower, -0.313 ± 0.04
- M68N — within error, -0.012 ± 0.051
- M68P — lower, -0.647 ± 0.06
- M68S — within error, -0.004 ± 0.026
- M68Q — within error, -0.014 ± 0.033
- M68D — within error, 0.054 ± 0.04
- V28E — lower, -1.01 ± 0.068
- V28A — lower, -0.479 ± 0.032
- V28D — lower, -0.898 ± 0.096
- S56F — lower, -0.229 ± 0.05
- S56H — lower, -0.09 ± 0.041
- S56M — lower, -0.102 ± 0.036
- S56D — within error, 0.023 ± 0.032
- K19R — within error, -0.017 ± 0.023
- K19L — within error, -0.026 ± 0.028
- K19N — within error, -0.037 ± 0.044
- K19W — lower, -0.195 ± 0.03
- K19A — within error, 0.022 ± 0.026
- D47C — lower, -0.552 ± 0.15
- D47V — lower, -0.859 ± 0.11
- D47K — lower, -1.04 ± 0.24
- V62E — within error, 0.015 ± 0.025
- V62K — lower, -0.114 ± 0.032
- V62M — lower, -0.052 ± 0.032
- V62D — within error, -0.031 ± 0.031
- V62T — within error, -0.007 ± 0.03
- V62G — lower, -0.067 ± 0.019
- V4Y — lower, -0.19 ± 0.055
- V4D — lower, -0.842 ± 0.1
- V4H — lower, -0.235 ± 0.059
- V4F — lower, -0.094 ± 0.05
- V4K — lower, -0.259 ± 0.039
- R50C — within error, 0.038 ± 0.056
- R50K — within error, 0.028 ± 0.045
- R50S — lower, -0.079 ± 0.039
- R50G — lower, -0.315 ± 0.034
- R50A — within error, -0.025 ± 0.033
- E63V — lower, -0.098 ± 0.023
- E63A — lower, -0.048 ± 0.024
- E63Y — within error, -0.079 ± 0.071
- N9Y — lower, -0.088 ± 0.039
- N9T — within error, 0.024 ± 0.029
- N9E — higher, 0.055 ± 0.026
- N9I — within error, -0.015 ± 0.042
- N9A — within error, -0.003 ± 0.025
- N9G — within error, -0.027 ± 0.02
- N9C — lower, -0.092 ± 0.032
- P82K — lower, -0.143 ± 0.092
- P82V — lower, -0.089 ± 0.056
- P82R — lower, -0.063 ± 0.044
- P82G — within error, -0.083 ± 0.067
- P82Y — lower, -0.45 ± 0.17

— the Human Domainome abundance scans (Beltran et al. 2025)
